Test: Unfolding of apoA-I by guanidine hydrochloride
Assay type: physicochemical
Experimental: FIG. 4. Unfolding of apoA-I in spherical (POPC)rHDL, (PLPC)rHDL, (PAPC)rHDL and (PDPC)rHDL. (POPC)rHDL, (PLPC)rHDL, (PAPC)rHDL, (PDPC)rHDL and lipid-free apoA-I were incubated with 0-8 M GdnHCl for 0 (◯), 5 ( ), and 24 (●) h. Values represent the mean of at least three determinations. Experimental errors for the wavelength of maximum fluorescence are ±1.0 nm.
FIG. 5. Kinetics of the unfolding of apoA-I in spherical (POPC)rHDL, (PLPC)rHDL, (PAPC)rHDL and (PDPC)rHDL. Spherical (POPC)rHDL ( ), (PLPC)rHDL ( ), (PAPC)rHDL (●), (PDPC)rHDL ( ) and lipid-free apoA-I (◯) were incubated with 3.5 M GdnHCl for 0-24 h. The wavelengths of maximum fluorescence represent the mean±sd of triplicate determinations.
The unfolding of apoA-I was determined by incubating the rHDL preparations at 25° C. for 0-24 h in the presence of 0-8.0 M guanidine hydrochloride (11).

lipid-free apoA-I: Apolipoprotein A-I purified from delipidated HDL of pooled human plasma, used as lipid-free comparator
rate of unfolding of apoA-I (3.5 M GdnHCl, 0-24 h): unfolded rapidly and completely
concentration of GdnHCl required to achieve 50% unfolding of apoA-I (25° C.): 1.0 M
